Results from US8460929B2, “Methods of tissue generation and tissue engineered compositions” (The Regents of the University of California, priority 2007, dated 2013).

Assays:
[1] = test system: isolated ureteric bud; assay: Isolated ureteric bud culture in 3D extracellular matrix gel (soluble factor effects); type: cell-based, rat; conditions: for growth of the isolated UB, single soluble factor: factor by itself; for induction of isolated UB, WD, or UB and WD branching morphogenesis: factor alone or in combination with GDNF, without BSN-CM; for Shape: rat E13 isolated UB in 3D gel, GDNF 125 ng/ml, HRG 500 ng/ml, FGF1 250 ng/ml, FGF7 50 ng/ml, PTN purified from BSN-CM
Experimental: In the case of culture of the isolated UB, WD, or UB and WD, the isolated kidneys were trypsinized for 15 min at 37° C. in L-15 media containing 2 μg/ml trypsin (Sigma). Trypsin digestion was arrested by the addition of 10% FCS and the kidneys were removed to fresh L-15 where the UBs, WDs, or UBs and WDs were isolated from surrounding MM by mechanical dissection. isolated UBs, WDs, or UBs and WDs were suspended within an extracellular matrix gel [1:1 mixture of growth factor reduced Matrigel™ (BD) and Type 1 collagen (BD)] applied to the top of a polyester Transwell filter (0.4 μm pore size; Corning-Costar). The Transwells were placed within individual wells of a 24-well tissue culture dish containing 400 μl of either whole BSN-CM, purified tractions of BSN-CM, or D-12 which were supplemented with human recombinant FGF1 (250 ng/ml; R&D Systems), rat recombinant GDNF (125 ng/ml; R&D Systems) and 10% FCS and cultured. Phase-contrast photomicrographs of the developing UB, WD, or UB and WD were taken using a RT-Slider Spot Digital Camera (Diagnostic Instruments Inc.) attached to a Nikon Eclipse TE300 Inverted Microscope.
Isolated ureteric bud, Wolffian duct bud, or ureteric and Wolffian duct buds were obtained from whole embryonic kidneys as described herein. Briefly, the embryonic kidney was lightly digested with trypsin and the UB, WD, or UB and WD were separated from the MM using fine-tipped needles. The UBs, WDs, or UBs and WDs were suspended within a matrix containing growth factor reduced Matrigel™ and Type I collagen and buffered by HEPES, NaHCO3, and DMEM to a pH of approximately 7.2. This mixture containing the suspended UB, WD, or UB and WD was applied to the top of the Transwell filter and the purified factor is applied to the well. The factor is supplemented with GDNF (125 ng/ml) and 10% FCS, and the isolated UBs, WDs, or UBs and WDs are cultured at 37° C. and humidified 5% CO2 atmosphere and branching morphogenesis, was assayed.
The entire urogenital tract was isolated from timed pregnant Holtzman rats at embryonic day 13 (E13). Kidney rudiments were dissected and lightly digested in trypsin for 15 minutes, after which the ureteric buds were mechanically separated from the metanephric mesenchyme. For the growth factor optimization, the buds were suspended within a matrix containing growth factor-reduced Matrigel™ and DMEM/F12 (50:50 v/v) on a 0.4 μm pore sized Transwell filter and BSN-conditioned media supplemented with 10% FCS and 1% antibiotics was placed beneath the filter. GDNF (125 ng/ml), FGF1 (250 ng/ml), FGF7 (50 ng/ml), HRG (500 ng/ml), PTN (purified from BSN-CM) was added to the media in various combinations to achieve a “minimal” and “most robust” growth factor condition. For the matrix optimization, isolated buds were cultured in a BSN-CM supplemented with 10% FCS, GDNF (125 ng/ml), FGF1 (250 ng/ml), and 1% antibiotics. Isolate buds were suspended in matrices (natural and artificial) consisting of growth factor reduced Matrigel™ diluted with DMEM/F12 (15%, 25%, 50%, 75% and 100%), type I collagen (3.0 mg/ml), Puramatrix™, 1% alginate solution (crosslinked with 100 mM CaCl2), and type IV collagen (0.75 mg/mL). In some cases, type I collagen, laminin 1, alginate or type IV collagen were added to a 50% growth factor reduced Matrigel™ solution. All matrix solutions were supplemented with DMEM and buffered by HEPES and NaHCO3 to a pH of approximately 7.2. The isolated buds were then cultured at 37° C. in a humidified 5% CO2 atmosphere.

[2] = test system: UB, WD, or UB and WD derived cells; assay: UB cell three-dimensional culture (tubulogenic activity); type: cell-based, mouse; conditions: collagen/Matrigel gel, 1% FCS, 4 days
Experimental: Confluent monolayers of UBs, WDs, or UBs and WDs were removed from tissue culture dishes by light trypsinization and the cells. 20,000 cells/ml were suspended in an extracellular matrix gel composed of 80% Type 1 collagen and 20% growth factor-reduced Matrigel™. 100 μl of the UB, WD, or UB and WD cell-containing gel was then aliquoted into individual wells of a 96-well tissue culture plate. After gelation, 100 μl of growth medium (DMEM/F12 with or without purified pleiotrophin) supplemented with 1% FCS was applied to each well and the cultures were incubated at 32° C. in 5% CO2 and 100% humidity. Following 4 days of culture, the percentage of cells/colonies with processes was counted as an indicator of the tubulogenic activity. Phase-contrast photomicrographs were taken as described herein.

[3] = test system: whole embryonic kidney; assay: Whole embryonic kidney organ culture; type: cell-based, rat
Description: Timed pregnant female Sprague-Dawley rats at day 13 of gestation (day 0 coincided with appearance of the vaginal plug) were sacrificed and the uteri were removed. The embryos were dissected free of surrounding tissues and the kidneys were isolated. For the culture of the whole kidney rudiment, 2-3 kidneys were applied directly to the top of a polyester Transwell filter (0.4 μm pore size; Corning-Costar). The Transwells were then placed within individual wells of a 24-well tissue culture dish containing 400 μl DMEM/F12 supplemented with 10% FCS with or without purified pleiotrophin. Following 7 days of culture, the kidneys were fixed in 2% paraformaldehyde and doublestained with fluorescein-conjugated Dolichos biflorus, a lectin which binds specifically to UB, WD, or UB and WD-derived structures, and rhodamine conjugated peanut agglutinin, a lectin which binds to structures derived from the MM. Fluorescent staining was detected using a laser-scanning confocal microscope (Zeiss).

[4] = test system: Wolffian duct; assay: Wolffian duct budding in vitro; type: cell-based, rat; conditions: whole mesonephros on Transwell filter, 10% serum and 10 ng/mL GDNF, two days
Description: The entire urogenital tract was isolated from timed pregnant Holtzman rats at embryonic day 13 (E13). Kidney rudiments were dissected, and the Wolffian duct was transected and removed. In some cases, the mesonephric tubules and most of the intermediate mesoderm were mechanically separated from the WD leaving a thin layer of the intermediate mesoderm that remained adherent to the WD. In some cases, the intermediate mesoderm was carefully stripped away in its entirety so that the epithelial tube of the WD remained intact. The WD with mesonephros and the WD with intermediate mesoderm were placed on 0.4 μm pore size Transwell filters and cultured at the air-media interface. The isolated WD devoid of all intermediate mesoderm was suspended in a matrix containing growth factor reduced Matrigel'm and DMEM/F12 (50:50 v/v) on a 0.4 μm pore sized Transwell filter. All cultures were carried out at 37° C. in a fully humidified 5% CO2 atmosphere in the presence of DMEM/F12 (50:50) media supplemented with 10% fetal calf serum (FCS), GDNF (10 ng/mL for the WD plus mesonephros, 125 ng/ml WD plus mesoderm and isolated WD) and, if necessary, either FGF1 (250 ng/ml) or FGF7 (50 ng/ml).

For heregulin [HRG], the “growth of the isolated UB, single soluble factor” value (from here on “growth of the isolated UB”) [1] was “did not support growth”.

For “Hepatocyte growth factor [HGF, reference compound]”, the “induction of isolated UB, WD, or UB and WD branching morphogenesis” value [1] was “does not induce branching morphogenesis”.

With fibroblast growth factor-1 [FGF1] the “effect of added FGF1 on inductive capacity of BSN-CM” value ([1]; 250 ng/ml FGF1) was “could potentiate the activity of the BSN-CM”, the “induction of isolated UB, WD, or UB and WD branching morphogenesis” value [1] was “not sufficient to induce” and the Shape [1] was “tubular”.

B1: pleiotrophin (protein, UniProt P21246 33-168, looked up)
Pleiotrophin: GKKEKPEKKVKKSDCGEWQWSVCVPTSGDCGLGTREGTRTGAECKQTMKTQRCKIPCNWKKQFGAECKYQFQAWGECDLNTALKTRTGSLKRALHNAECQKTVTISKPCGKLTKPKPQAESKKKKKEGKKQEKMLD
In the case of B1, the “morphology of the branching UB, lower concentrations” value ([1]; 156 ng/ml-2.5 pg/ml purified pleiotrophin) is reported as “dichotomous branching and elongation of the stalk”, the “concentrations useful for morphogenetic activity” value ([1]; cultures in collagen IV or basement membrane Matrigel) is reported as 200 to 600 ng/mL and the “growth of the isolated UB” value [1] is reported as “did not support growth”. The “branching morphogenesis of the isolated UB, pleiotrophin purified from 3T3 conditioned medium” value ([1]; pure pleiotrophin isolated from Swiss 3T3 conditioned medium) was “capable of inducing impressive branching morphogenesis”, the “induction of UB, WD, or UB and WD branching morphogenesis” value ([1]; supplemented with GDNF, in the absence of FGF1) was “capable of inducing” and the “morphology of the branching UB, high concentration” value ([1]; ≧5 μg/ml purified pleiotrophin) was “robust proliferation with less elongation”. The “formation of branching structures of UB cells in three dimensional culture” value [2] was “capable of inducing the formation of branching structures”, the “growth of the UB in whole embryonic kidney organ culture” value ([3]; exogenously added pleiotrophin, 7 days) was “disproportionately stimulated growth” and the “Nephron induction visualized with PNA lectin” value ([3]; high concentrations of pleiotrophin) was “appeared to be normal”.

B2: recombinant human pleiotrophin: recombinant human pleiotrophin produced in the insect cell line (R&D systems) (protein, UniProt P21246 33-168, looked up)
Pleiotrophin: GKKEKPEKKVKKSDCGEWQWSVCVPTSGDCGLGTREGTRTGAECKQTMKTQRCKIPCNWKKQFGAECKYQFQAWGECDLNTALKTRTGSLKRALHNAECQKTVTISKPCGKLTKPKPQAESKKKKKEGKKQEKMLD
For B2, the “branching morphogenesis of the isolated UB, WD, or UB and WD” value ([1]; E13 rat bud in extracellular matrix gel, with GDNF) was “unable to induce”.

B3: fibroblast growth factor-7 (protein, UniProt P21781 32-194, looked up)
Fibroblast growth factor 7: CNDMTPEQMATNVNCSSPERHTRSYDYMEGGDIRVRRLFCRTQWYLRIDKRGKVKGTQEMKNNYNIMEIRTVAVGIVAIKGVESEFYLAMNKEGKLYAKKECNEDCNFKELILENHYNTYASAKWTHNGGEMFVALNQKGIPVRGKKTKKEQKTAHFLPMAIT
notes: growth factor obtained from R&D Systems
With B3 the Shape [1] was “globular”.

B4: glial cell-derived neurotrophic factor (protein, UniProt P39905 78-211, looked up)
Glial cell line-derived …: SPDKQMAVLPRRERNRQAAAANPENSRGKGRRGQRGKNRGCVLTAIHLNVTDLGLGYETKEELIFRYCSGSCDAAETTYDKILKNLSRNRRLVSDKVGQACCRPIAFDDDLSFLDDNLVYHILRKHSAKRCGCI
notes: as for B3
In the case of B4, the “growth of the isolated UB” value [1] is reported as “did not support growth” and the Wolffian duct budding [4] is reported as “numerous budding events occurred at multiple foci along the WD”.
